assay: soluble on expression in E. coli; label from the status in PepcDB or PDB records

Row | Sequence | soluble on expression in E. coli
1 | STEDLLTYTLDEAERLTGSTLGFFDLISDDQSIMRSACSSNAKKDNCGHARHPIVINFKAPADVLQKKRAIIHNDHATLRHCNSKSVSHKEAIRELIVPVIRNGKVMAILEVGNKPANYDQNDIQLLNELSGVAWDIIARKHAEDSAQKTMK | not soluble
2 | MGSDKIHHHHHHMMAVAHKGEAQFDFYWRQQGEWVEEPNQRRGGESGVQRLNDADGKLLYAKRQVGHIYRSLLHPFGRPTVLRELDALNSFEQLGVRVPRIVFCGAQRDAEHQWRALLVSEALDGFVELDTWHAEGARERYPQVVHERMLKDLADNLARMHLGHWQHGCLYGKHVFIKVIGEGEQARVEVALLDLEKCRRRISCQRAAGNDLRQLRRHSSLNDAEWRTLLYFYKMAFGSAVKGLE | not soluble
3 | MRIVYCISGTCNSGGMERVLSNKANYLAAHGYEVTIVTTDQRGRRPFFALDGRIECVDLDVNYETNNGKSFFNKLVHYPFKQLKHKRRLTKVLNLIKPDITVSMFCNDVAFLPSIQDGSKKVLEVHFSRFKRLQYDRKGLWRLADKWRNRNEQRQVACFDKFVVLTHEDKDYWEGHANIEVIPNAQTFACDVPAALESKTVVAVGRYTYQKGFDMLLRAWRRVCDSIDDWQLHIVGEGEMKESLQQQILDLSLEDRVELCPATSDIQSVYREASVLVLSSRYEGFGMVLLEAQTAGVPTVSFDCKCGPSDIVADGVTGYLVPANDIPALAEKLLVLMRDETLRKQMGRNAFADASRFSEKAVMQRWTDLFENFR | not soluble
4 | MAHHHHHHSLSGPRVERLEVSAYTVPTDYPESDGTLQWDSTTMILVEAHGGGRKGLGYTYGDVSVGRFVESKLAGVAEGSDALSPPAVWARMQAAIRNAGRPGVGAMAVSAVDIALWDLKARLLGLPLADALPRFHAEVPVYGSGGFTSYPLRRLQEQLGGWAAAGIPRVKMKVGREPEKDPERVRAAREAIGESVELMVDANGAYTRKQALYWAGAFAREAGISYLEEPVSSEDREGLRLLRDRGPGGVAIAAGEYEWTLPQLHDLAGCVDILQADVTRCGGITGLLRVDGICRGHQIPFSAHCAPAVSAHACCAVESLLHLEYFHDHARVERLLFDGTLDPEGGSLRPDPDRPGLGLELKRSEAGKYAA | soluble
5 | MGSDKIHHHHHHMKLKTKTMEWSGNSLKLLDQRKLPFIEEYVECKTHEEVAHAIKEMIVRGAPAIGVAAAFGYVLGLRDYKTGSLTDWMKQVKETLARTRPTAVNLFWALNRMEKVFFENADRENLFEILENEALKMAYEDIEVNKAIGKNGAQLIKDGSTILTHCNAGALATVDYGTALGVIRAAVESGKRIRVFADETRPYLQGARLTAWELMKDGIEVYVITDNMAGWLMKRGLIDAVVVGADRIALNGDTANKIGTYSLAVLAKRNNIPFYVAAPVSTIDPTIRSGEEIPIEERRPEEVTHCGGNRIAPEGVKVLNPAFDVTENTLITAIITEKGVIRPPFEENIKKILEV | not soluble
6 | MFDDLHEYLDFLARKNDLITVNDQVDPDLELTYILSEEERIGRGRTIQFNRVKGSEVPAVGNLFSTYEKMKTVLGDDPYQIGRRIVEIAQPPGDSESFIGKGIEMMRELGGLRPKIAGSLPSNYDELDRVDLFRYPICKTWPQDGGKFITLPLVITKDPETGTRNMGMYRMQVYDSETTGMHWHIHKGGSENFQKEAQKHEVMDVAVVIGSDPLTIFSAVAPLPNGIDEFMFRGLVSKKRFDLVKGKTVNLEYPRNFEIVLEGYIDPAETRIEGPFGDHTGYYSLEEQFPVFHIKKIIERRDRIYPTTIVGKLWHEDVIMGKTIERMFLPLIQMVMPEVVDINTMEEAVFHNMVIVSIKKRYPGHAKKVMFGLWGMGQMMFSKIIVVVDDDINVHNRKEVIWAMTTRIDPDRDVIIIPGTVTDSLDHASPIFNYGSKMGIDATKKRPDEGYQRRWPDVLEMPEDVTNRVRDLMKKNGMTQLEHHHHHH | not soluble
7 | MIPNFRGFNKKTKKMYSIDGFKSSERKIYRCSLADDEFRSGRLETFHFVEDNLVEKCNRPPERFYRQKQVRKSDRRLMARQ | not soluble
8 | MSLANNKVHFIAIGGAVMHNLALALHHKGYLVSGSDDEIFEPSRTRLAAYNLLPAEMGWFPEKITTDLDAVILGMHARNDNPELQKARELGIKIYSFPEYIYEQSKDKQRIVIAGSHGKTTITAMIMHVLKTHKRKFDYLVGAKLDGFETMVQITDDAPIIIIEGDEYLTSPLDLTPKFLHYHHHIGLISGVAWDHINVYPTFEEYVKQFDAFADSTPKGGILIYSESDDLATLVADKPRPDVQAIGYSAPKHEIVNGITYLLTDKGKIELEVFGKHNLKNINAAKNVCLKIGITEAMFYDAIKTFKGAANRLEILGRGKHNVVFKDFAHAPSKLKATSKAVKKQFSDRKLIAVLELHTFSSLNKEFLSQYKDTYKAPDEPIVYFNPETVKHKRLEEITEADIIEAFDNPKLNVFTDSKKLEEFLFSHDWKHSNLLLMSSGNFGGIDLKKLTSHVLNQHAEGHHHHHH | soluble
9 | MGSDKIHHHHHHIDQWIRRQHHPTGNPTATQNKVFIATQNQPLLMDTGEKKSPPPPTPPNPPVNHAIAPVAQHPQPMPIPHQVPSPAHGAAHGHPQAPPMYPGIGFAPGMLQLPQNMQTTIVYTPSMAYDNGHPAAQVN | not soluble
10 | MNSQNPDDHEDTTVVGFEVPVSPVSSYNNVYSSTEDETRDPPAVPPHLQHSLLGNQGSMELAYAPQNVVLNHLYIENRDAPRSVVALGFSHRFRTKFVTVVIYKPVQRRGSANV | not soluble
11 | MAAACICQPNLLEINVSDGPLDMIRKKRKIQQPQLRPPLRENKCQPHFSVRKVNQSYIISLHKEITCQLIAEIVKQKLSRIWEKVYIPSYELISDKDGNQIYVEQSVDENRLTSEIMEKLDPNNIDIEAIEILFDDYHLELSRLTNGIIISSANDHFYREFSFNNIIDDNFKICGTSMSADSFDKIYGVMWIEVPFNGNGLQNDSAVNRVSTSHNQIEELNDIEQEIRAFNISRSNQESIIKKEVSRRLNGR | not soluble
12 | MSLNANVVIAGPGTGKTTSISQKYLELVQSGVDPNDILCITFTNKAAENMRSRIIKALERSGTQIDLSVINVYTFHSFANSAIRRYGYRGIVNQNFLRKIIFDYLIRNSVFNYEREYLISRIVPQLENIIRYLGSFGIDRIENPEETAASLREIFKKRREEKKIKEDLEEITAIFIHLSKIMDEYRNAKEARGVIDYNDMIIKFLELEKKPHFKYVLVDELQDASDLQARLIKSVADDIYAVGDRKQAIFGFQGGGFGNFSNHFPDAHVNYLLTDHRNSEAVLNYAREFFLKNTKYPDQYRTELDQLKASKARGGSVEVVSGEEEAVLDLLKRFPEGKVGILARRNDQVIKISEILDSNGMRYASSALSAASDRAKKDVIAFLKMIIYGDMQSVIDALFTPFSGLQISEAYDIKESLISGNTSLQNYDLLNNLRRTYSAPGINGLIDMFEKLIIPIALAFDQRYFLTVERIYKNLREYLDFYGNEDRSDLINYLEICDDEVQEIDADERISVLTVHKAKGLEFDHVIYLPKAKKDEKMSAVDLVAEQMIRLKTEGHHHHHH | soluble
13 | MNREGAPGKSPEEMYIQQKVRVLLMLRKMGSNLTASEEEFLRTYAGVVNSQLSQLPPHSIDQGAEDVVMAFSRSETEDRRQ | soluble
14 | MKEYLTRSNISYFSIGSGTPIIFLHGLSLDKQSTCLFFEPLSNVGQYQRIYLDLPGMGNSDPISPSTSDNVLETLIEAIEEIIGARRFILYGHSYGGYLAQAIAFHLKDQTLGVFLTCPVITADHSKRLTGKHINILEEDINPVENKEYFADFLSMNVIINNQAWHDYQNLIIPGLQKEDKTFIDQLQNNYSFTFEEKLKNINYQFPFKIMVGRNDQVVGYQEQLKLINHNENGEIVLLNRTGHNLMIDQREAVGFHFDLFLDELNSNN | soluble
15 | VDNARIDLRSKYYVKPKADHPWLTRRTQSHQQVKPPKLPKKKPDPDKKD | soluble
16 | AHHHHHHGSGVEEHKKEAPKTFKFGVITVSDKGAKGEREDKSGPLIIEELSKLGEHVYYKIVPDDKIEVLIALFEAIKSGADVVVTTGGTGITRRDITIESIKPLFDKELSFGEVFRAKSYEEVGYATVLTRATAGIIRGQERIVVVFSLPGSVNAVKTGLEIIKSEVFHILKHARE | soluble
17 | MRGSHHHHHHGSSEPLILDAPNADACIIWLHGLGADRTDFKPVAEALQMVLPSTRFILPQAPSQAVTVNGGWVMPSWYDILAFSPARAIDEDQLNASADQVIALIDEQRAKGIAAERIILAGFSQGGAVVLHTAFRRYAQPLGGVLALSTYAPTFDDLALDERHKRIPVLHLHGSQDDVVDPALGRAAHDALQAQGVEVGWHDYPMGHEVSLEEIHDIGAWLRKRL | soluble
18 | MSLSSYTVLAVDDSEINLKLIVHTLQPFGFQIFTAESAADARNVLLTNRVDVLLLDVSMPDQDGFSFCRELREIERFKLLPILFITGINREVGFDEAISHGGDDFIQKPFQPKELIAKIRAFIRIKILQDELLEQKKNYERELIMARKVQQELLPEKELEWNGVSLSTIFQPLMQIGGDYTDAWIEDDSLHIFIADCSGHGPSAALLAAMLKMQVSSLSPDQSLQEKVQTLRHNLEKILPDEFSITFFYGILHKDLSFEYSNGGHPAPMLYQNGEVSILPGMGPLIIPIEINVKEEFKSVQLQKDSYMLLYTDGATEISDKSMNILGEDKLKKIFQESVSIGGDILVSMMESILAHSDRGTNDDDIAMMVLKLEGHHHHHH | soluble
19 | ECGHISVSAPIVHLGDPITASCIIKQNCSHLDPEPQILWRLGAELQPGGRQQRLSDGTQESIITLPHLNHTQAFLSCSLNWGNSLQILDQVELRAGYPPAIPHNLSCLMNLTTSSLICQWEPGPETHLPTSFTLKSFKSRGNCQTQGDSILDCVPKDGQSHCSIPRKHLLLYQNMGIWVQAENALGTSMSPQLCLDPMDVVKLEPPMLRTMDPSPEAAPPQAGCLQLSWEPWQPGLHINQKCELRHKPQRGEASWALVGPLPLEALQYELCGLLPATAYTLQIRCIRWPLPGHWSDWSPSLELRTTERAAAPR | soluble
20 | MALRDLSSSLSSSSSPELHVLAVDDSFVDRKVIERLLKISACKVTTVESGTRALQYLGLDGDNGSSGLKDLKVNLIVTDYSMPGLTGYELLKKIKESSALREIPVVIMSSENIQPRIEQCMIEGAEEFLLKPVKLADVKRLKELIMRGGEAEEGKTKKLSPKRILQNDIDSSPSSSSTSSSSSSHDVSSLDDDTPSSKRIKLESRG | not soluble
21 | MASISRFRGCLAGALLGDCVGAVYEAHDTVSLASVLSHVESLEPDPGTPGSARTETLYYTDDTAMTRALVQSLLAKEAFDEVDMAHRFAQEYKKDPDRGYGAGVITVFKKLLNPKCRDVYEPARAQFNGKGSYGNGGAMRVAGISLAYSSVQDVQKFARLSAQLTHASSLGYNGAILQALAVHLALQGVSSSEHFLEQLLGHMEELEGDAQSVLDAKELGMEERPYSSRLKKVGELLDQDVVSREEVVSELGNGIAAFESVPTAIYCFLRCMEPHPEIPSTFNSLQRTLIYSISLGGDTDTIATMAGAIAGAYYGMEQVPESWQQSCEGFEETDVLAQSLHRVFQES | soluble
22 | MSLDAISAATHSDPYFYYTRLRARGGLTYDCALRLWVASSAAAVAAVLDHPACQVRPSTEPVPQAIAGRPAGQLFGRLMRMNDGPRQRCPRAAIEPALQGLCTAGLETHLARWQPALAGPACAADLQRWQFVLPVALLASLLGVPAEQCETLARRTGEFVACFSPLSDQPRLQAADRAALELDAQMQALVQAPQHSPLLRQILDRSGELAPADLRANLAGLLAQTHDACAGLVGNSLVALLAAPAMQQRLRQEPGLLGDWLLERQRLDPPVQNTRRFVTAPCTVHGVELQAGETILVLLAAANQDPALAAITGSNPAHQGFSFGAGAHRCPGRELALGIVRCLLHALLQGPGLDALALDWQYQASVNGRIPLFSDRGEAEGHHHHHH | not soluble
23 | MKIKSIRKAVLLLALLTSTSFAAGKNVNVEFRKGHSSAQYSGEIKGYDYDTYTFYAKKGQKVHVSISNEGADTYLFGPGIDDSVDLSRYSPELDSHGQYSLPASGKYELRVLQTRNDARKNKTKKYNVDIQIK | soluble

Source: the DeepSol protein solubility set
